Data: PMC10638775

Target: FGFR1 on NIH3T3 cells (mouse (NIH3T3 fibroblasts)) (UniProt P16092)
Test: flow cytometry
Details: SPR: Biacore T200, CM5 amine coupling, HBS running buffer (pH, salt, temperature not stated), flow cytometry: PBS, 1% BSA, 0.1% sodium azide, room temperature

Chain of FGFR1 on NIH3T3 cells (mouse (NIH3T3 fibroblasts)) (P16092 22-822): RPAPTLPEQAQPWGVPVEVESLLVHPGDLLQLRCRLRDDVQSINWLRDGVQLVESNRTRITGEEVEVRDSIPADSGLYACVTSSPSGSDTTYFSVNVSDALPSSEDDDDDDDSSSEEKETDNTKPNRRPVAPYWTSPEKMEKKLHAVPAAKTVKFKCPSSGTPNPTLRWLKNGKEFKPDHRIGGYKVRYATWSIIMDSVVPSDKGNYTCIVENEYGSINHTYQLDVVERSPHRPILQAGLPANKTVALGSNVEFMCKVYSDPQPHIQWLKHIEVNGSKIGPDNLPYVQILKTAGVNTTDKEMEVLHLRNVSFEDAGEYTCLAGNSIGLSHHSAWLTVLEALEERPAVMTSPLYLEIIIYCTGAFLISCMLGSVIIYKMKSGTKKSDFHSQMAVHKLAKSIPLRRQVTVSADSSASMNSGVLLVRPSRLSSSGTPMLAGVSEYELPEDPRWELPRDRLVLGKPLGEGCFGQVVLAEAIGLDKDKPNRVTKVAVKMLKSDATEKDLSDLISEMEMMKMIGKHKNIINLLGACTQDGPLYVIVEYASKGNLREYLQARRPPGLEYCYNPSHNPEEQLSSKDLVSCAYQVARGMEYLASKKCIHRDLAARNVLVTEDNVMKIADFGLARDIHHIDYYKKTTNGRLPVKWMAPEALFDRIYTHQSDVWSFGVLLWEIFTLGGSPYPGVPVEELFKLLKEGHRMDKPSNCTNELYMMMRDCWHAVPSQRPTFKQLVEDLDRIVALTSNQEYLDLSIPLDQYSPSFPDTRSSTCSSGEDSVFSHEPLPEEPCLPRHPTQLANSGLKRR

“GCCGCGTCTTTATGGCTGGGGATGGTGTGGGTTGCGGC [FAM-FGFR-binder]” gave a Kd of 39 nM.
